# T1: LIN7B, Q9HAP6
# T1 sequence (Q9HAP6 88-185, limits assumed, looked up): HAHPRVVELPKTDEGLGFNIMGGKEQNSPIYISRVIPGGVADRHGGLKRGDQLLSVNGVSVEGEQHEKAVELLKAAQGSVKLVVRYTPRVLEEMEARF
# T2: DLG3_2, Q92796
# T2 sequence (Q92796 221-321, limits assumed, looked up): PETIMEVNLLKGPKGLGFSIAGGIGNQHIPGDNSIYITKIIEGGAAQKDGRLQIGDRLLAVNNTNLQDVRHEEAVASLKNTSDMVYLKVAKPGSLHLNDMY
# T3: DLG3_1, Q92796
# T3 sequence (Q92796 125-227, limits assumed, looked up): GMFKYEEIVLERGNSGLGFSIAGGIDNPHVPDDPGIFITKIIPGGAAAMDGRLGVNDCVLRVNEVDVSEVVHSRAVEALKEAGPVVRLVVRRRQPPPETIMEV
# T4: SYNJ2BP, P57105
# T4 sequence (P57105 8-110, limits assumed, looked up): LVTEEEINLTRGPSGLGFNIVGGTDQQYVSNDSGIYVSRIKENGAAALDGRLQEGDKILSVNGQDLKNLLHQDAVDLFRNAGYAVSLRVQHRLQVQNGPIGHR
# T5: MPDZ_10, O75970
# T5 sequence (O75970 1624-1722, limits assumed, looked up): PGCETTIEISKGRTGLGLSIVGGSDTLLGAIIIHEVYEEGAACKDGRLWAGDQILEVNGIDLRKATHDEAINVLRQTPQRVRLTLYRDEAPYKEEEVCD
# T6: HTRA3, P83110
# T6 sequence (P83110 354-453, limits assumed, looked up): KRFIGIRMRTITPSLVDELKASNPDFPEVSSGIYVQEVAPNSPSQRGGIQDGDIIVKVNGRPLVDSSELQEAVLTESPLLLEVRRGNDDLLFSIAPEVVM
# T7: DFNB31_1, Q9P202
# T7 sequence (Q9P202 135-233, limits assumed, looked up): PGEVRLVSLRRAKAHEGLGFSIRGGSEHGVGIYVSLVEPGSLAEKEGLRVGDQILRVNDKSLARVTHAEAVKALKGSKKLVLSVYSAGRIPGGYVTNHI
# T8: GRIP1_2, Q9Y3R0
# T8 sequence (Q9Y3R0 145-248, limits assumed, looked up): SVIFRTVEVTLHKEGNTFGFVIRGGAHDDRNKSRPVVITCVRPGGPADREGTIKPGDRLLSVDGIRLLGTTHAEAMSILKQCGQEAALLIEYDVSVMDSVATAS
# T9: PARD3B_1, Q8TEW8
# T9 sequence (Q8TEW8 196-299, limits assumed, looked up): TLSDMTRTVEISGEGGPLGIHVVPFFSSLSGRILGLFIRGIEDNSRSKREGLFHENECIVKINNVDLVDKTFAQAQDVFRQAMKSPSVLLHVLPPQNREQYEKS
# T10: GRIP1_4, Q9Y3R0
# T10 sequence (Q9Y3R0 467-571, limits assumed, looked up): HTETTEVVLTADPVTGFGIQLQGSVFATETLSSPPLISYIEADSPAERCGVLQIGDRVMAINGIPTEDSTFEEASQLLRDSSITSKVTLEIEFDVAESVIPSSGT
# T11: PTPN13_1, Q12923
# T11 sequence (Q12923 1088-1188, limits assumed, looked up): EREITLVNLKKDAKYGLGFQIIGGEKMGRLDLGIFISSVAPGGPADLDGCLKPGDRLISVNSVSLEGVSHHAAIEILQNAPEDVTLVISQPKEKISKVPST
# T12: RHPN1, Q8TCX5
# T12 sequence (Q8TCX5 508-602, limits assumed, looked up): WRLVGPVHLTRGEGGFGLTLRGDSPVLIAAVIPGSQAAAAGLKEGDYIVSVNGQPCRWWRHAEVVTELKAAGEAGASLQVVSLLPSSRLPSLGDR
# B1: KIF17, Q9P2E2 (peptide)
# chain: SKSNFGSEPL
# B2: SLC22A12, Q96S37 (peptide)
# chain: GNSVLKSTQF
# Target: TJP1_3, Q07157
# Sequence (Q07157 416-512): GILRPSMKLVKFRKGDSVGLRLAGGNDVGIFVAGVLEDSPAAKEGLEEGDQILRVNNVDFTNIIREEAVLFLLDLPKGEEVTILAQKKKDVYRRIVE
# Assay: holdup assay
# Parameters: key: below the threshold = too weak to quantify, mostly under pKd 3.1 to 4
# Settings: plain residues with an end cap or a label only (N-terminal biotin on a linker: ado-ado)
row,Binder,pKd
1,B1,below the threshold
2,B2,below the threshold

# Target: T1, LIN7B, Q9HAP6
# Assay: holdup assay
# Parameters: key: below the threshold = too weak to quantify, mostly under pKd 3.1 to 4
# Settings: plain residues with an end cap or a label only (N-terminal biotin on a linker: ado-ado)
row,Binder,pKd
1,B1,below the threshold
2,B2,3.71

# Target: T2, DLG3_2, Q92796
# Assay: holdup assay
# Parameters: key: below the threshold = too weak to quantify, mostly under pKd 3.1 to 4
# Settings: plain residues with an end cap or a label only (N-terminal biotin on a linker: ado-ado)
row,Binder,pKd
1,B1,below the threshold
2,B2,4.21

# Target: T3, DLG3_1, Q92796
# Assay: holdup assay
# Parameters: key: below the threshold = too weak to quantify, mostly under pKd 3.1 to 4
# Settings: plain residues with an end cap or a label only (N-terminal biotin on a linker: ado-ado)
row,Binder,pKd
1,B1,below the threshold
2,B2,below the threshold

# Target: TJP2_1, Q9UDY2
# Sequence (Q9UDY2 24-128): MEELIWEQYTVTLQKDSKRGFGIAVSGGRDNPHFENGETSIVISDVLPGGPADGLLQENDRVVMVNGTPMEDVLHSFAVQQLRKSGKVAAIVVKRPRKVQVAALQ
# Assay: holdup assay
# Parameters: key: below the threshold = too weak to quantify, mostly under pKd 3.1 to 4
# Settings: plain residues with an end cap or a label only (N-terminal biotin on a linker: ado-ado)
row,Binder,pKd
1,B1,below the threshold
2,B2,below the threshold

# Target: LAP2, Q96RT1
# Sequence (Q96RT1 other isoform, or with tags, fused parts or gaps): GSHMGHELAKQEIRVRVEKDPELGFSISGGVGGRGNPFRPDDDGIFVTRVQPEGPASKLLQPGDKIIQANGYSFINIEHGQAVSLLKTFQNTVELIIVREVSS
# Assay: holdup assay
# Parameters: key: below the threshold = too weak to quantify, mostly under pKd 3.1 to 4
# Settings: plain residues with an end cap or a label only (N-terminal biotin on a linker: ado-ado)
row,Binder,pKd
1,B1,below the threshold
2,B2,below the threshold

# Target: T4, SYNJ2BP, P57105
# Assay: holdup assay
# Parameters: key: below the threshold = too weak to quantify, mostly under pKd 3.1 to 4
# Settings: plain residues with an end cap or a label only (N-terminal biotin on a linker: ado-ado)
row,Binder,pKd
1,B1,below the threshold
2,B2,below the threshold

# Target: IL16_1, Q14005
# Sequence (Q14005 210-306): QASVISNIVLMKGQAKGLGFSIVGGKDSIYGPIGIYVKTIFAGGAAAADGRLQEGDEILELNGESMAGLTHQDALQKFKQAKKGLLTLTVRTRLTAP
# Assay: holdup assay
# Parameters: key: below the threshold = too weak to quantify, mostly under pKd 3.1 to 4
# Settings: plain residues with an end cap or a label only (N-terminal biotin on a linker: ado-ado)
row,Binder,pKd
1,B1,below the threshold
2,B2,below the threshold

# Target: T5, MPDZ_10, O75970
# Assay: holdup assay
# Parameters: key: below the threshold = too weak to quantify, mostly under pKd 3.1 to 4
# Settings: plain residues with an end cap or a label only (N-terminal biotin on a linker: ado-ado)
row,Binder,pKd
1,B1,below the threshold
2,B2,below the threshold

# Target: GORASP2, Q9H8Y8
# Assay: holdup assay
# Parameters: key: below the threshold = too weak to quantify, mostly under pKd 3.1 to 4
# Settings: plain residues with an end cap or a label only (N-terminal biotin on a linker: ado-ado)
row,Binder,pKd
1,B1,below the threshold
2,B2,below the threshold

# Target: T6, HTRA3, P83110
# Assay: holdup assay
# Parameters: key: below the threshold = too weak to quantify, mostly under pKd 3.1 to 4
# Settings: plain residues with an end cap or a label only (N-terminal biotin on a linker: ado-ado)
row,Binder,pKd
1,B1,below the threshold
2,B2,below the threshold

# Target: HTRA1, Q92743
# Sequence (Q92743 360-477): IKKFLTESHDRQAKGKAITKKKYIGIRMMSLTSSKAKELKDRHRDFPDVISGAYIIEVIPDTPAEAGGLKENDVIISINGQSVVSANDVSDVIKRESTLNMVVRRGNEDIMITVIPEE
# Assay: holdup assay
# Parameters: key: below the threshold = too weak to quantify, mostly under pKd 3.1 to 4
# Settings: plain residues with an end cap or a label only (N-terminal biotin on a linker: ado-ado)
row,Binder,pKd
1,B1,below the threshold
2,B2,below the threshold

# Target: T7, DFNB31_1, Q9P202
# Assay: holdup assay
# Parameters: key: below the threshold = too weak to quantify, mostly under pKd 3.1 to 4
# Settings: plain residues with an end cap or a label only (N-terminal biotin on a linker: ado-ado)
row,Binder,pKd
1,B1,below the threshold
2,B2,3.6

# Target: Inadl_9, Q8NI35
# Sequence (Q8NI35 1530-1615): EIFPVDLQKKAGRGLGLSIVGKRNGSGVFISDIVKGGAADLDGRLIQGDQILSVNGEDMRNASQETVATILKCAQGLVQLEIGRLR
# Assay: holdup assay
# Parameters: key: below the threshold = too weak to quantify, mostly under pKd 3.1 to 4
# Settings: plain residues with an end cap or a label only (N-terminal biotin on a linker: ado-ado)
row,Binder,pKd
1,B1,below the threshold
2,B2,below the threshold

# Target: DLG4_1, P78352
# Sequence (P78352 62-152): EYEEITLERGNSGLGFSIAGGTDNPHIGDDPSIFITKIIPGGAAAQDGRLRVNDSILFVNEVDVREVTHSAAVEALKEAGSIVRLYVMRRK
# Assay: holdup assay
# Parameters: key: below the threshold = too weak to quantify, mostly under pKd 3.1 to 4
# Settings: plain residues with an end cap or a label only (N-terminal biotin on a linker: ado-ado)
row,Binder,pKd
1,B1,below the threshold
2,B2,below the threshold

# Target: T8, GRIP1_2, Q9Y3R0
# Assay: holdup assay
# Parameters: key: below the threshold = too weak to quantify, mostly under pKd 3.1 to 4
# Settings: plain residues with an end cap or a label only (N-terminal biotin on a linker: ado-ado)
row,Binder,pKd
1,B1,below the threshold
2,B2,below the threshold

# Target: T9, PARD3B_1, Q8TEW8
# Assay: holdup assay
# Parameters: key: below the threshold = too weak to quantify, mostly under pKd 3.1 to 4
# Settings: plain residues with an end cap or a label only (N-terminal biotin on a linker: ado-ado)
row,Binder,pKd
1,B1,3.65
2,B2,4.21

# Target: T10, GRIP1_4, Q9Y3R0
# Assay: holdup assay
# Parameters: key: below the threshold = too weak to quantify, mostly under pKd 3.1 to 4
# Settings: plain residues with an end cap or a label only (N-terminal biotin on a linker: ado-ado)
row,Binder,pKd
1,B1,below the threshold
2,B2,below the threshold

# Target: Inadl_10, Q8NI35
# Sequence (Q8NI35 1673-1763): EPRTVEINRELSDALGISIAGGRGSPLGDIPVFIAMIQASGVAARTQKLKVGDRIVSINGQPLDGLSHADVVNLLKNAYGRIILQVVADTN
# Assay: holdup assay
# Parameters: key: below the threshold = too weak to quantify, mostly under pKd 3.1 to 4
# Settings: plain residues with an end cap or a label only (N-terminal biotin on a linker: ado-ado)
row,Binder,pKd
1,B1,below the threshold
2,B2,below the threshold

# Target: NHERF4_4, Q86UT5
# Sequence (Q86UT5 464-550): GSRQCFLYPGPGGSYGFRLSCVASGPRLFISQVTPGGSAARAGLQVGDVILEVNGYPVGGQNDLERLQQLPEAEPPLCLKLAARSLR
# Assay: holdup assay
# Parameters: key: below the threshold = too weak to quantify, mostly under pKd 3.1 to 4
# Settings: plain residues with an end cap or a label only (N-terminal biotin on a linker: ado-ado)
row,Binder,pKd
1,B1,below the threshold
2,B2,below the threshold

# Target: DLG1_3, Q12959
# Sequence (Q12959 457-571): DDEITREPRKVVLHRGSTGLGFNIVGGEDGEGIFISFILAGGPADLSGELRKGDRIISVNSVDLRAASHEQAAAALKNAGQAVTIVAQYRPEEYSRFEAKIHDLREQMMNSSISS
# Assay: holdup assay
# Parameters: key: below the threshold = too weak to quantify, mostly under pKd 3.1 to 4
# Settings: plain residues with an end cap or a label only (N-terminal biotin on a linker: ado-ado)
row,Binder,pKd
1,B1,below the threshold
2,B2,below the threshold

# Target: NOS1, P29475
# Sequence (P29475 9-101): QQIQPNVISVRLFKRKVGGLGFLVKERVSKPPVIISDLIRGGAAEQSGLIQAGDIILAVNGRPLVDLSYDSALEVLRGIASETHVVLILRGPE
# Assay: holdup assay
# Parameters: key: below the threshold = too weak to quantify, mostly under pKd 3.1 to 4
# Settings: plain residues with an end cap or a label only (N-terminal biotin on a linker: ado-ado)
row,Binder,pKd
1,B1,below the threshold
2,B2,3.72

# Target: Inadl_5, Q8NI35
# Sequence (Q8NI35 673-780): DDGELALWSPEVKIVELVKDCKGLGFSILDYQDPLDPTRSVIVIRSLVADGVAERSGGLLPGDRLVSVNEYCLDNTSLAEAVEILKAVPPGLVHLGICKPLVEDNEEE
# Assay: holdup assay
# Parameters: key: below the threshold = too weak to quantify, mostly under pKd 3.1 to 4
# Settings: plain residues with an end cap or a label only (N-terminal biotin on a linker: ado-ado)
row,Binder,pKd
1,B1,below the threshold
2,B2,below the threshold

# Target: T11, PTPN13_1, Q12923
# Assay: holdup assay
# Parameters: key: below the threshold = too weak to quantify, mostly under pKd 3.1 to 4
# Settings: plain residues with an end cap or a label only (N-terminal biotin on a linker: ado-ado)
row,Binder,pKd
1,B1,below the threshold
2,B2,below the threshold

# Target: T12, RHPN1, Q8TCX5
# Assay: holdup assay
# Parameters: key: below the threshold = too weak to quantify, mostly under pKd 3.1 to 4
# Settings: plain residues with an end cap or a label only (N-terminal biotin on a linker: ado-ado)
row,Binder,pKd
1,B1,below the threshold
2,B2,below the threshold

# From publication PMC9482650, “Quantitative fragmentomics allow affinity mapping of interactomes” (Nature Communications, 2022)
